Measured values published in patent publication US20230365705A1 (DYNAMICURE BIOTECHNOLOGY, published 2023).

Columns and labels:
[1] = molecular target: T1, Human CD93 recombinant protein (Sino Biological Inc, Catalog #12589-H08H) (human, UniProt Q9NPY3 22-580); experiment: ELISA, His-tagged human CD93 coated, OD450
T1 construct: Biotinylated (EZ-LINK NHS-PEG4 biotin) in the BLI assays; also called hCD93; His-tagged human CD93
T1 sequence (looked up): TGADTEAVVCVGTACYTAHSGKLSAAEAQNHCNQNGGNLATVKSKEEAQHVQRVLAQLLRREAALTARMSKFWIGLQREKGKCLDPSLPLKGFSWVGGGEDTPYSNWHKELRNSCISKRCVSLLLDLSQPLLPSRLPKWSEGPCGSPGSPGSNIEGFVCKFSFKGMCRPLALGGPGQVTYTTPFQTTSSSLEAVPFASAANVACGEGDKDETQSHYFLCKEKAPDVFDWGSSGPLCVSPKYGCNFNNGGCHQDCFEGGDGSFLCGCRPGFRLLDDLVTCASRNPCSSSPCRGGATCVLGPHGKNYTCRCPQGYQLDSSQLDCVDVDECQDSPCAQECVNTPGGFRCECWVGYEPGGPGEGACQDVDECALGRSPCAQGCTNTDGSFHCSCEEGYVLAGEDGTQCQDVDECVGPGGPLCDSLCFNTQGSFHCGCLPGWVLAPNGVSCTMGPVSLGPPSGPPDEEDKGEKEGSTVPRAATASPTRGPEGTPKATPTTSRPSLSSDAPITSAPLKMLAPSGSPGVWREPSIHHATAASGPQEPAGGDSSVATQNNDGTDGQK
Procedure: His-tagged human CD93 was coated onto a 96 well plate at 1 μg/mL in 1×PBS overnight at 4° C. The plate was washed with ELISA wash buffer (Boston BioProduct, Inc.) and the wells were blocked with ELISA blocking buffer for 1 hour at 37° C. […] The plate was washed with ELISA wash Buffer. […] The plate was washed with ELISA wash Buffer. HRP substrate was added for indirect detection of the antibodies binding to CD93.

[2] = molecular target: T2, Human CD93 on cells (human CD93 expressing CHO cells; HUVEC, U937 and KG1a cells) (human, UniProt Q9NPY3 22-652); experiment: flow cytometry, CHO-hCD93 cells, APC-A
T2 construct: whole, on cells; also called hCD93 expressing CHO cells; hCD93 CHO cells
T2 sequence (looked up): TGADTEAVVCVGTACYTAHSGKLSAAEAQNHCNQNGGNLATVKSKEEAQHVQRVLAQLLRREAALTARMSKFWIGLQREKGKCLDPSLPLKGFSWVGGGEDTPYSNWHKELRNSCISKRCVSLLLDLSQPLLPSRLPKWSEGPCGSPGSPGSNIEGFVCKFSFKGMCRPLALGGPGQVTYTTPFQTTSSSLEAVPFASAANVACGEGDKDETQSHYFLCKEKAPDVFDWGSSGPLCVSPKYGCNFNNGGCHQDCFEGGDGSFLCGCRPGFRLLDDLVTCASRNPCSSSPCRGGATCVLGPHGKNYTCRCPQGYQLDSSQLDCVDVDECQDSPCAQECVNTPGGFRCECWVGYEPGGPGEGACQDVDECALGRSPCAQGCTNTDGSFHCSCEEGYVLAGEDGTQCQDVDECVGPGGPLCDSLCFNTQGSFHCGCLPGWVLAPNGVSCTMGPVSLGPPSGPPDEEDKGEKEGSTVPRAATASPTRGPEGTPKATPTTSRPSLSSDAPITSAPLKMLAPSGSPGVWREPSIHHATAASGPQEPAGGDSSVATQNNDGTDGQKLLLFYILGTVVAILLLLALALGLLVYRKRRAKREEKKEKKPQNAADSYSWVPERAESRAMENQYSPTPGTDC

[3] = molecular target: T1, Human CD93 recombinant protein (Sino …); experiment: BLI (Octet), human CD93; sheet prints Anti-Penta-HIS(HIS1K) biosensor
[4] = molecular target: T2, Human CD93 on cells (human CD93 …); experiment: flow cytometry blocking assay, CHO-hCD93 cells, antibody 50 ug/ml then MMRN2 0.5 ug/ml, APC-A
Procedure: (§1) After incubation, the cells were washed with FACS buffer and incubated with anti-His conjugated APC or streptavidin conjugated APC at a ratio of 1:500 for 30 minutes at 4° C. After washing with FACS buffer twice, the samples were analyzed and data acquired in NovoCyte Flow.

[5] = molecular target: T2, Human CD93 on cells (human CD93 …); experiment: flow cytometry blocking assay, CHO-hCD93 cells, antibody 50 ug/ml then MMRN2 0.1 ug/ml, APC-A
Procedure: as §1

[6] = molecular target: T2, Human CD93 on cells (human CD93 …); experiment: flow cytometry titration on human CD93 CHO cells; column head printed kd, unit from the axis log (concentration (M))
Procedure: Cells were quenched with media then counted. Cells were resuspended in FACS buffer (ice cold PBS with 0.5% BSA) and human serum was added to 20% (10% final volume) and put on ice for approximately 20 minutes. 5×10⁴ cells were seeded per well in 100 μL and incubated with serial diluted anti-CD93 antibodies in 100 μL on ice for 2 hours. Samples were then washed by spinning samples at 1200 rpm for 5 minutes. Media was discarded and cells were resuspended in 200 μL ice cold FACS buffer. Cells were washed again and resuspended in 100 μL of secondary Antibody, AlexaFluor647 conjugated anti-human IgG or anti-mouse IgG antibodies (Jackson ImmunoResearch), diluted 1:500 in FACS buffer. Plates were covered with foil to protect from like and incubated for 1 hour on ice. Cells were washed again resuspended in 200 μL ice cold FACS buffer. Cells were washed again and were resuspended in 200 μL fixing solution (PBS with 1% formaldehyde). Samples were stored at 4° C. covered in foil, then were acquired in NovoCyte Flow Cytometer and analyzed by NovoExpress software.

[7] = molecular target: T2, Human CD93 on cells (human CD93 …); experiment: flow cytometry titration on U937 cells -human serum; column head printed kd, unit from the axis log (concentration (M))
Procedure: Cells were quenched with media then counted. Cells were resuspended in FACS buffer (ice cold PBS with 0.5% BSA) and put on ice ˜20 min. 5×10⁴ cells were seeded per well in 100 μL and incubated with serial diluted anti-CD93 antibodies in 100 μL on ice for 2 hours. Samples were then washed by spinning samples at 1200 rpm for 5 minutes. Media was discarded and cells were resuspended in 200 μL ice cold FACS buffer. Cells were washed again and resuspended in 100 μL of secondary Antibody, AlexaFluor647 conjugated anti-human IgG or anti-mouse IgG antibodies (Jackson ImmunoResearch), diluted 1:500 in FACS buffer. Plates were covered with foil to protect from light and were incubated for 1 hour on ice. Samples were then washed again and resuspended in 200 μL ice cold FACS buffer. Cells were washed again and resuspended in 200 μL fixing solution (PBS with 1% formaldehyde). Samples were stored at 4° C. covered in foil, ands were subsequently acquired in NovoCyte Flow Cytometer and analyzed by NovoExpress software.

[8] = molecular target: T2, Human CD93 on cells (human CD93 …); experiment: flow cytometry titration on HUVEC cells +human serum; column head printed kd, unit from the axis log (concentration (M))
Procedure: (§2) Recombinant parental anti-CD93 antibodies were evaluated for their ability to bind to HUVEC cells in the presence or absence of human serum. […] Antibodies were purified using Protein G Sepharose. The resulting antibodies were tested for its binding capacity to a variety of cells that express CD93. […] Cells were quenched with media then counted. Cells were resuspended in FACS buffer (ice cold PBS with 0.5% BSA) and human serum was added to 20% (10% final volume) and put on ice for approximately 20 minutes. 5×10⁴ cells were seeded per well in 100 μL media and incubated with serial diluted anti-CD93 antibodies in 100 μL on ice for 2 hours. Cells were then washed by spinning cells at 1200 rpm for 5 min. Media was discarded and cells were resuspended in 200 μL ice cold FACS buffer. The wash step was repeated and cells were resuspended in 100 μL of secondary antibody, AlexaFluor647 conjugated anti-human IgG or anti-mouse IgG antibodies (Jackson ImmunoResearch), diluted 1:500 in FACS buffer. Plates were blocked from light and incubated 1 hour at 4° C. Cells were then washed again then were resuspended in 200 μL ice cold FACS buffer. Cells were washed again and resuspended in 200 μL fixing solution (PBS with 1% formaldehyde). Samples were stored at 4° C. covered in foil, then were acquired in NovoCyte Flow Cytometer and analyzed by NovoExpress software.

[9] = molecular target: T2, Human CD93 on cells (human CD93 …); experiment: flow cytometry titration on HUVEC cells -human serum; column head printed kd, unit from the axis log (concentration (M))
Procedure: as §2

[10] = molecular target: T2, Human CD93 on cells (human CD93 …); experiment: flow cytometry, CHO cells overexpressing human CD93, antibody 0.01ug, mIgG1 as control, APC-A

B1: 17B10 (hybridoma) (antibody, V domains shown)
VH: QVQLQQSGPELVKPGASVKISCKASGYAFSSYWLNWVKQRPGKGLEWFGRIYPGDGDTDYNGKFKGKATLTADKSSSTAYMQLRSLTSEDSAVYFCVRGDGYWAMDYWGQGTSVTVSS
VL: DIVMTQAAFSNPVTLGTSASISCRFSKSLLHSNGITYLYWYLQKPGQSPQLLIYQMSNLASGVPDRFSSSGSGTDFTLRISRVEAEDVGVYYCAQNLELPWTFGGGTKLEIK
notes: Mouse hybridoma monoclonal antibody
- EC50 [1]: 0.153 nM

B2: 17B10-hIgG1 (recombinant parental 17B10-hFc) (antibody, V domains shown)
VH: QVQLQQSGPELVKPGASVKISCKASGYAFSSYWLNWVKQRPGKGLEWFGRIYPGDGDTDYNGKFKGKATLTADKSSSTAYMQLRSLTSEDSAVYFCVRGDGYWAMDYWGQGTSVTVSS
VL: DIVMTQAAFSNPVTLGTSASISCRFSKSLLHSNGITYLYWYLQKPGQSPQLLIYQMSNLASGVPDRFSSSGSGTDFTLRISRVEAEDVGVYYCAQNLELPWTFGGGTKLEIK
notes: also called recombinant parental 17B10 with the human Fc; 17B10 chimeric
- EC50 [1]: 0.0167 nM

B3: 10B1 (antibody, V domains shown)
VH: QVQLKQSGPGLVQPSQSLSITCTVSDFSLSSFGVNWVRQPPGKGLEWLGVIWSGGSTDYNVAFISRLSISKDNSKSQVFFKMNNLQADDTAIYYCARNWRYDGYFYAMDYWGQGTSVTVSS
VL: DIVMTQSQKFMSTSTGDRVSVTCKASQNVGTNVAWYQQKPGQSPKALIYSASYRFIGVPDRFTGSGSGTDFTLTITNVQSEDLAEYFCQQYNRNPITFGSGTKLEIK
notes: as for B1
- M3 gate, % of cells [2]: 97.3%
- Kd [3]: 0.904 nM
- koff [3]: 0.000116 s⁻¹
- kon [3]: 128000 M⁻¹ s⁻¹
- M3 gate, % of cells positive for MMRN2 after the antibody [4]: 47.2%
- M3 gate, % of cells positive for MMRN2 after the antibody [5]: 29.4%

B4: Recombinant parental 16E4 with a human CH1 domain and mouse IgG1 CH2 and CH3 Fc domains (antibody, V domains shown)
VH: QVQLQQPGAELVKPGASVKLSCKASGYTFTSYWMHWVKQRPGQGLEWIGEIDPSASYTYYNQKFKGKATLTVDKSSSTAYMQLSSLTSEDSAVYYCARSVYYGNKYFDVWGAGTTVTVSS
VL: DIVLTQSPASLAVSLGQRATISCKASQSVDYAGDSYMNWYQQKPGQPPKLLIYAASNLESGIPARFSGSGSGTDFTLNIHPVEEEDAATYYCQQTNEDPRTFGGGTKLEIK
- Kd [6]: 0.14 nM
- Kd [7]: 0.0629 nM
- Kd [8]: 0.314 nM
- Kd [9]: 0.174 nM

B5: Recombinant parental 7F3 with a human CH1 domain and mouse IgG1 CH2 and CH3 Fc domains (antibody, V domains shown)
VH: QVQLQQSGADLVRPGASVKLSCKASGYTFTDYEMHWVKQTPVYGLEWIGGIDPETGDTAYNQNFKGKATLTADKSSSAAYMELRSLTSEDSAVYYCTNYGNLYYYAMDYWGQGTSVTVSS
VL: ENVLTQSPAIMSASPGEKVTMTCRASSSVSSSYLHWYQQKSGASPKLWIYSTSNLAFGVPARFSGSGSGTSYSLTISSVEAEDAATYYCQQYSGYPLTFGSGTKLEIK
- Kd [6]: 0.0757 nM
- Kd [7]: 0.0234 nM
- Kd [8]: 3.43 nM
- Kd [9]: 0.741 nM

B6: humanized 17B10 H1L3 (antibody, mouse IgG1, V domains shown)
VH: QVQLVQSGAEVKKPGSSVKVSCKASGYAFSSYWLNWVRQAPGQGLEWFGRIYPGDGDTDYNGKFKGRVTLTADKSTSTAYMELSSLRSEDTAVYFCVRGDGYWAMDYWGQGTTVTVSS
VL: DIVMTQSPDSLAVSLGERATINCRFSKSLLHSNGITYLYWYQQKPGQPPKLLIYQMSNLASGVPDRFSGSGSGTDFTLTISSLQAEDVAVYYCAQNLELPWTFGGGTKLEIK
notes: Chimeric Fc: human CH1, mouse IgG1 CH2 and CH3
- M2 gate, % of cells [10]: 99.2%

B7: humanized 17B10 H3L2 (antibody, mouse IgG1, V domains shown)
VH: QVQLVQSGPEVKKPGESLKISCKASGYAFSSYWLNWVRQMPGKGLEWMGRIYPGDGDTDYNGKFKGQVTISADKSSGTAYLQLSSLKASDTAVYFCVRGDGYWAMDYWGQGTLVTVSS
VL: DIVMTQTPLSLPVTPGEPASISCRFSQSLLHSNGITYLYWYLQKPGQSPQLLIYTMSNLASGVPDRFSGSGSGTDFTLKISRVEAEDVGVYYCAQNLELPWTFGGGTKLEIK
notes: as for B6
- M2 gate, % of cells [10]: 96.7%
